Data from paper PMC11272775, “Epigenetic memory is governed by an effector recruitment specificity toggle in Heterochromatin Protein 1” (Nature Communications, 2024).
Numbering of substitutions follows the chain as printed. Names and notes keep the numbering of the source.

B1: Swi6-WT (recombinant, full-length) (natural protein, S. pombe, UniProt P40381 1-328, looked up)
chain: MKKGGVRSYRRSSTSKRSVIDDDSEPELPSMTKEAIASHKADSGSSDNEVESDHESKSSSKKLKENAKEEEGGEEEEEDEYVVEKVLKHRMARKGGGYEYLLKWEGYDDPSDNTWSSEADCSGCKQLIEAYWNEHGGRPEPSKRKRTARPKKPEAKEPSPKSRKTDEDKHDKDSNEKIEDVNEKTIKFADKSQEEFNENGPPSGQPNGHIESDNESKSPSQKESNESEDIQIAETPSNVTPKKKPSPEVPKLPDNRELTVKQVENYDSWEDLVSSIDTIERKDDGTLEIYLTWKNGAISHHPSTITNKKCPQKMLQFYESHLTFRENE
notes: Swi6, HP1 homolog of S. pombe; MW 37,292.6 g/mol; source: E. coli BL21(DE3)-RIPL, purified (Ni-NTA, anion exchange, SEC); not shown: 6XHis, N-terminal, cleaved
B2: 3X FLAG-Swi6-WT (recombinant) (natural protein, S. pombe, UniProt P40381 1-328, looked up)
chain: B1 chain
notes: Swi6, HP1 homolog of S. pombe; source: E. coli BL21(DE3)-RIPL, purified (recombinant); not shown: 6XHis, N-terminal, cleaved
B3: Swi6-T278K (recombinant, full-length) (natural protein, S. pombe, UniProt P40381 1-328, looked up)
chain: B1 chain with T278K
notes: Swi6, HP1 homolog of S. pombe, with T278K; MW 37,319.7 g/mol; also called Swi6-K; source: E. coli BL21(DE3)-RIPL, purified (Ni-NTA, anion exchange, SEC); not shown: 6XHis, N-terminal, cleaved
B4: Swi6-T278Y (recombinant, full-length) (natural protein, S. pombe, UniProt P40381 1-328, looked up)
chain: B1 chain with T278Y
notes: Swi6, HP1 homolog of S. pombe, with T278Y; MW 37,354.7 g/mol; also called Swi6-Y; source: E. coli BL21(DE3)-RIPL, purified (Ni-NTA, anion exchange, SEC); not shown: 6XHis, N-terminal, cleaved

Key:
[1] = system: Swi6-WT (Schizosaccharomyces pombe); experiment: EMSA; settings: 20 mM Hepes pH 7.5, 4 mM Tris, 80 mM KCl, 0.1% Igepal CA-630, 0.2 mM EDTA, 2 mM DTT, 10% glycerol, 10 nM mononucleosome, 30 °C 45 min, 6% acrylamide 0.5x TBE …
H3K9me3 mononucleosomes = experiment: native gel or EMSA; Swi6 varied, 10 nM mononucleosomes; 20 mM Hepes pH 7.5, 4 mM tris, 80 mM KCl, 0.1% Igepal CA-630, 0.2 mM EDTA, 2 mM DTT, 10% glycerol; 30 °C for 45 min; unbound nucleosome band quantified; apparent K1/2
[2] = molecular target: the molecule itself; experiment: mass photometry; full-length recombinant Swi6 at 2.5-20 nM in 20 mM HEPES pH 7.5, 100 mM KCl; apparent dimerization constants (Kdim) from the relative abundance of monomer and dimer; dimer to monomers
MBP-Epe1 = molecular target: T1, MBP-Epe1 (S. pombe, UniProt O94603 1-948); experiment: pull-down; recombinant 3X FLAG-Swi6 immobilised on FLAG M2 beads, three concentrations of recombinant MBP-Epe1; 20 mM HEPES pH 7.5, 150 mM NaCl, 5 mM MgCl2, 10% glycerol, 0.25% Triton X-100, 1 mM DTT; 2 h at 4 °C; blots with anti-MBP and M2 Flag antibodies; settings: both partners purified
T1 construct: Epe1, S. pombe, full-length; also called MBP-His-TEV-Epe1; recombinant MBP-Epe1 fusion protein; source: Hi5 cells infected with baculovirus, purified (amylose resin, Superdex 200); not shown: MBP, N-terminal, kept
T1 sequence (looked up): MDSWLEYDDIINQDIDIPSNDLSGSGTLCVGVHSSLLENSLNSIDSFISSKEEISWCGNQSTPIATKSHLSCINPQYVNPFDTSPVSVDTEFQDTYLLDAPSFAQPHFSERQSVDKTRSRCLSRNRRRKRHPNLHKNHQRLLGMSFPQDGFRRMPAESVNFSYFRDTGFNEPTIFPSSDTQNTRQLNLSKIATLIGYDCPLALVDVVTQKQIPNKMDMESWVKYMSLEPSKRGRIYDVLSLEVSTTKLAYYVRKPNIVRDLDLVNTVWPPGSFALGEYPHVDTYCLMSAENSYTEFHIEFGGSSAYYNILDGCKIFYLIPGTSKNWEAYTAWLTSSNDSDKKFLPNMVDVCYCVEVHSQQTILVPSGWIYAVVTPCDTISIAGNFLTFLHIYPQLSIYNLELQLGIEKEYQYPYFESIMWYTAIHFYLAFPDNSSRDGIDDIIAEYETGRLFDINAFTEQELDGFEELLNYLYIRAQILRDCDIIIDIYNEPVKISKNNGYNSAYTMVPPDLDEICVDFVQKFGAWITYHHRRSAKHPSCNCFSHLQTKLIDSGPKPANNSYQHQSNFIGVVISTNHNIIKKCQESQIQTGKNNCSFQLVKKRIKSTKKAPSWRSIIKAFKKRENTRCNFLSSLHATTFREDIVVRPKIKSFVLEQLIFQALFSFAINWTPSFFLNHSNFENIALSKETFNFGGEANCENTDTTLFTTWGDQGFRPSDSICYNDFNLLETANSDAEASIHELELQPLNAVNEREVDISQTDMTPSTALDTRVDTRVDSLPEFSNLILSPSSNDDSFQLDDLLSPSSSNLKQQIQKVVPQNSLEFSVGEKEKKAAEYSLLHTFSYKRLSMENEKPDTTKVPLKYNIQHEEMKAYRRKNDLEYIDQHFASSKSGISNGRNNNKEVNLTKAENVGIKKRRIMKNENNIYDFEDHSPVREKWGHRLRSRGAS

Row | Molecule | apparent K1/2 (H3K9me3 mononucleosomes) [nM] | specificity for H3K9me3 over H3K9me0 mononucleosomes (H3K9me3 mononucleosomes) [fold] | Kd [2] [nM] | stoichiometry N [2] | further results
1 | H3K9me3 mononucleosome | – | – | – | – | K half ([1]; H3K9me3 histone, histone H3K9me3 (DNA unmodified)): 50 nM
2 | H3K9me0 mononucleosome | – | – | – | – | binding signal (fold weaker than H3K9me3) ([1]; H3K9me0 histone, unmodified H3 (H3K9me0)): 2.4
3 | B1 | 50 | 2.4 | 0.38 | 2 | –
4 | B2 | – | – | – | – | binding result (MBP-Epe1): binds
5 | B3 | – | – | 0.2 | 2 | –
6 | B4 | 39 | 2.3 | 0.27 | 2 | –
